Molecular target: His-tagged DENV2 NS2B protein (His-NS2B) (aa 48-95)

B1: His-tagged maltose-binding protein (MBP) fused to DENV2 NS3 protein (His-MBP-NS3) (protein)
chain: AGVLWDVPSPPPMGKAELEDGAYRIKQKGILGYSQIGAGVYKEGTFHTMWHVTRGAVLMHKGKRIEPSWADVKKDLISYGGGWKLEGEWKEGEEVQVLALEPGKNPRAVQTKPGLFKTNAGTIGAVSLDFSPGTSGSPIIDKKGKVVGLYGNGVVTRSGAYVSAIAQTEKSIEDNPEIE
- transactivation (protease activity, Abz substrate at 200 µM; NS3 150 nM, NS2B 1 µM): Both soluble MBP-NS3 fusion protein and refolded NS3 can be trans-activated by soluble His-NS2B, and have similar activities

B2: refolded His-NS3 (protein)
chain: B1 chain
- transactivation (protease activity, Abz substrate at 200 µM; NS3 150 nM, NS2B 1 µM): Both soluble MBP-NS3 fusion protein and refolded NS3 can be trans-activated by soluble His-NS2B, and have similar activities
